Measured values taken from US20160122426A1 (DONG A SOCIO, published 2016).

T1: mouse VEGF (mouse, UniProt Q00731-2 27-190)
T1 construct: Bought recombinant protein; also called mVEGF-A; mouse VEGF-A
T1 sequence (looked up): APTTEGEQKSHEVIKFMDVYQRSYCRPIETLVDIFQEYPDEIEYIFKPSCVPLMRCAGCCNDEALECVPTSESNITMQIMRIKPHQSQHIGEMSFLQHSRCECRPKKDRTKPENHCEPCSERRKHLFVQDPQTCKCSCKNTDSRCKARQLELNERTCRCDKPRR


Legend:
[1] = molecular target: T2, human VEGF (human, UniProt P15692-4 27-191); test: ELISA and BIAcore
T2 construct: Bought recombinant protein; also called hVEGF; human VEGF-A

[2] = molecular target: T1, mouse VEGF; test: ELISA and BIAcore
[3] = molecular target: T2, human VEGF; test: SPR (BIAcore X100), VEGF on CM5 chip, IgG injected, 1:1 Langmuir
Excerpt: Meanwhile, to measure the affinity, human VEGF and mouse VEGF were coupled to carboxymethylated dextran biosensor chips (CM5, GE) according to the manufacturer's instructions.
The association and dissociation rates were expressed by the association and dissociation sensorgram, and calculated using a simple 1:1 Langmuir binding model (BIAcore X100 evaluation software, ver. 2.0).

Binder | fold affinity over mother clone F [1] [times] | fold affinity over mother clone F [2] [times] | Kd [3] [pM] | koff [3] [s⁻¹] | kon [3] [M⁻¹ s⁻¹]
HF2-2 (antibody, V domains shown) VH: EVQLVESGGGLVQPGGSLRLSCAASRFNMRSHGMQWVRQAPGKGLEYVAGISSDGSWERVGAAVEGRFTISRDDSKNTAYLQMNSLRAEDTAVYYCARDFSTGYGADSIDAWGQGTLVTVSS VL: DIQMTQSPSSLSASVGDRVTITCSGGSDSAYGYGWYQQKPGKAPKTLIYWDDKRPSGVPSRFSGSRSGTDFTLTISSLQPEDFATYYCGAWEYSGGVGIFGQGTKVEIK | ≥ 10 | ≥ 10 | < 1 | < 1e-06 | 1.1e+06
HF2-3 (antibody, V domains shown, also called HF-3) VH: EVQLVESGGGLVQPGGSLRLSCAASHFNMRSHGMQWVRQAPGKGLEYVAGISSDGSWFRVAAAVEGRFTISRDDSKNTAYLQMNSLRAEDTAVYYCARDFSTGYGADSIDAWGQGTLVTVSS VL: DIQMTQSPSSLSASVGDRVTITCSGGSDSAYGYGWYQQKPGKAPKTLIYWDDKRPSGAPSRFSGSRSGTDFTLTISSLQPEDFATYYCGAWEYSGGVGIFGQGTKVEIK | ≥ 10 | ≥ 10 | < 1 | < 1e-06 | 1.3e+06
HF2-6 (antibody, V domains shown) VH: EVQLVESGGGLVQPGGSLRLSCAASRFLLRSHGMQWVRQAPGKGLEYVAGISSDGSWFRVAAAVEGRFTISRDDSKNTAYLQMNSLRAEDTAVYYCARDFSTGYGADSIDAWGQGTLVTVSS VL: DIQMTQSPSSLSASVGDRVTITCSGGSMEPLGYGWYQQKPGKAPKTLIYWDDKRPSGVPSRFSGSRSGTDFTLTISSLQPEDFATYYCGAWEYSGGVGIFGQGTKVEIK | ≥ 10 | ≥ 10 | < 1 | < 1e-06 | 1.6e+06
HF2-7 (antibody, V domains shown) VH: EVQLVESGGGLVQPGGSLRLSCAASQFWIRSHGMQWVRQAPGKGLEYVAGISSDGSWFRVAAAVEGRFTISRDDSKNTAYLQMNSLRAEDTAVYYCARDFSTGYGADSIDAWGQGTLVTVSS VL: DIQMTQSPSSLSASVGDRVTITCSGGSMEPLGYGWYQQKPGKAPKTLIYWDDKRPSGVPSRFSGSRSGTDFTLTISSLQPEDFATYYCGAWEYSGGVGIFGQGTKVEIK | ≥ 10 | ≥ 10 | 16 | 2.7e-05 | 1.6e+06
HF2-10 (antibody, V domains shown) VH: EVQLVESGGGLVQPGGSLRLSCAASFQYFRSHGMQWVRQAPGKGLEYVAGISSDGSWFRVAAAVEGRFTISRDDSKNTAYLQMNSLRAEDTAVYYCARDFSTGYGADSIDAWGQGTLVTVSS VL: DIQMTQSPSSLSASVGDRVTITCSGGSMEPLGYGWYQQKPGKAPKTLIYWDDKRPSGVPSRFSGSRSGTDFTLTISSLQPEDFATYYCGAWEYSGGVGIFGQGTKVEIK | ≥ 10 | ≥ 10 | < 1 | < 1e-06 | 1.6e+06
HF2-12 (antibody, V domains shown) VH: EVQLVESGGGLVQPGGSLRLSCAASYSEVRSHGMQWVRQAPGKGLEYVAGISSDGSWFRVAAAVEGRFTISRDDSKNTAYLQMNSLRAEDTAVYYCARDFSTGYGADSIDAWGQGTLVTVSS VL: DIQMTQSPSSLSASVGDRVTITCSGGSMEPLGYGWYQQKPGKAPKTLIYWDDKRPSGVPSRFSGSRSGTDFTLTISSLQPEDFATYYCGAWEYSGGVGIFGQGTKVEIK | ≥ 10 | ≥ 10 |  |  | 
HF2-13 (antibody, V domains shown) VH: EVQLVESGGGLVQPGGSLRLSCAASGFLVRSHGMQWVRQAPGKGLEYVAGISSDGSWQRVNAAVEGRFTISRDDSKNTAYLQMNSLRAEDTAVYYCARDFSTGYGADSIDAWGQGTLVTVSS VL: DIQMTQSPSSLSASVGDRVTITCSGGSDLLLGYGWYQQKPGKAPKTLIYWDDKRPSGVPSRFSGSRSGTDFTLTISSLQPEDFATYYCGAWEYSGGVGIFGQGTKVEIK | ≥ 10 | ≥ 10 | ≤ 9 | ≤ 1e-05 | 1.4e+06
HF2-14 (antibody, V domains shown) VH: EVQLVESGGGLVQPGGSLRLSCAASHSSIRSHGMQWVRQAPGKGLEYVAGISSDGSWLRQDAAVEGRFTISRDDSKNTAYLQMNSLRAEDTAVYYCARDFSTGYGADSIDAWGQGTLVTVSS VL: DIQMTQSPSSLSASVGDRVTITCSGGSDSAYGYGWYQQKPGKAPKTLIYWDDKRPSGVPSRFSGSRSGTDFTLTISSLQPEDFATYYCGAWEYSGGVGIFGQGTKVEIK | ≥ 10 | ≥ 10 | < 1 | < 1e-06 | 1.3e+06
HF2-15 (antibody, V domains shown) VH: EVQLVESGGGLVQPGGSLRLSCAASGFVVRSHGMQWVRQAPGKGLEYVAGISSDGSWKATAAAVEGRFTISRDDSKNTAYLQMNSLRAEDTAVYYCARDFSTGYGADSIDAWGQGTLVTVSS VL: DIQMTQSPSSLSASVGDRVTITCSGGSQESLGYGWYQQKPGKAPKTLIYWDDKRPSGVPSRFSGSRSGTDFTLTISSLQPEDFATYYCGAWEYSGGVGIFGQGTKVEIK | ≥ 10 | ≥ 10 |  |  | 
HF2-16 (antibody, V domains shown) VH: EVQLVESGGGLVQPGGSLRLSCAASGFRIRSHGMQWVRQAPGKGLEYVAGISSDGSWVKVAAAVEGRFTISRDDSKNTAYLQMNSLRAEDTAVYYCARDFSTGYGADSIDAWGQGTLVTVSS VL: DIQMTQSPSSLSASVGDRVTITCSGGSIEPLGYGWYQQKPGKAPKTLIYWDDKRPSGVPSRFSGSRSGTDFTLTISSLQPEDFATYYCGAWEYSGGVGIFGQGTKVEIK | ≥ 10 | ≥ 10 |  |  | 
HF2-17 (antibody, V domains shown) VH: EVQLVESGGGLVQPGGSLRLSCAASGFMIRSHGMQWVRQAPGKGLEYVAGISSDGSWRRHSAAVEGRFTISRDDSKNTAYLQMNSLRAEDTAVYYCARDFSTGYGADSIDAWGQGTLVTVSS VL: DIQMTQSPSSLSASVGDRVTITCSGGSIEPLGYGWYQQKPGKAPKTLIYWDDKRPSGVPSRFSGSRSGTDFTLTISSLQPEDFATYYCGAWEYSGGVGIFGQGTKVEIK | ≥ 10 | ≥ 10 |  |  | 
HF2-18 (antibody, V domains shown) VH: EVQLVESGGGLVQPGGSLRLSCAASYWAFRSHGMQWVRQAPGKGLEYVAGISSDGSWFSSAAAVEGRFTISRDDSKNTAYLQMNSLRAEDTAVYYCARDFSTGYGADSIDAWGQGTLVTVSS VL: DIQMTQSPSSLSASVGDRVTITCSGGSIEPLGYGWYQQKPGKAPKTLIYWDDKRPSGVPSRFSGSRSGTDFTLTISSLQPEDFATYYCGAWEYSGGVGIFGQGTKVEIK | ≥ 10 | ≥ 10 |  |  | 
HF2-20 (antibody, V domains shown) VH: EVQLVESGGGLVQPGGSLRLSCAASYMEYRSHGMQWVRQAPGKGLEYVAGISSDGSWSRVDAAVEGRFTISRDDSKNTAYLQMNSLRAEDTAVYYCARDFSTGYGADSIDAWGQGTLVTVSS VL: DIQMTQSPSSLSASVGDRVTITCSGGSDSAYGYGWYQQKPGKAPKTLIYWDDKRPSGVPSRFSGSRSGTDFTLTISSLQPEDFATYYCGAWEYSGGVGIFGQGTKVEIK | ≥ 10 | ≥ 10 |  |  | 
HF2-21 (antibody, V domains shown) VH: EVQLVESGGGLVQPGGSLRLSCAASFQYFRSHGMQWVRQAPGKGLEYVAGISSDGSWYRVQAAVEGRFTISRDDSKNTAYLQMNSLRAEDTAVYYCARDFSTGYGADSIDAWGQGTLVTVSS VL: DIQMTQSPSSLSASVGDRVTITCSGGSMEPLGYGWYQQKPGKAPKTLIYWDDKRPSGVPSRFSGSRSGTDFTLTISSLQPEDFATYYCGAWEYSGGVGIFGQGTKVEIK | ≥ 10 | ≥ 10 |  |  | 
HF2-22 (antibody, V domains shown) VH: EVQLVESGGGLVQPGGSLRLSCAASGFRIRSHGMQWVRQAPGKGLEYVAGISSDGSWFRVAAAVEGRFTISRDDSKNTAYLQMNSLRAEDTAVYYCARDFSTGYGADSIDAWGQGTLVTVSS VL: DIQMTQSPSSLSASVGDRVTITCSGGSTAGVGYGWYQQKPGKAPKTLIYWDDKRPSGVPSRFSGSRSGTDFTLTISSLQPEDFATYYCGAWEYSGGVGIFGQGTKVEIK | ≥ 10 | ≥ 10 |  |  | 
HF2-23 (antibody, V domains shown) VH: EVQLVESGGGLVQPGGSLRLSCAASGFRIRSHGMQWVRQAPGKGLEYVAGISSDGSWFSSAAAVEGRFTISRDDSKNTAYLQMNSLRAEDTAVYYCARDFSTGYGADSIDAWGQGTLVTVSS VL: DIQMTQSPSSLSASVGDRVTITCSGGSDLLLGYGWYQQKPGKAPKTLIYWDDKRPSGVPSRFSGSRSGTDFTLTISSLQPEDFATYYCGAWEYSGGVGIFGQGTKVEIK | ≥ 10 | ≥ 10 |  |  | 
HF2-24 (antibody, V domains shown) VH: EVQLVESGGGLVQPGGSLRLSCAASRFNMRSHGMQWVRQAPGKGLEYVAGISSDGSWVKVAAAVEGRFTISRDDSKNTAYLQMNSLRAEDTAVYYCARDFSTGYGADSIDAWGQGTLVTVSS VL: DIQMTQSPSSLSASVGDRVTITCSGGSQESLGYGWYQQKPGKAPKTLIYWDDKRPSGVPSRFSGSRSGTDFTLTISSLQPEDFATYYCGAWEYSGGVGIFGQGTKVEIK | ≥ 10 | ≥ 10 |  |  | 
